Our source for the ADCP EC50 Value, fold higher affinity than bIgG1a and bIgG3a and Kd values is patent US20230416410A1.

The target of assay [1] is Fc gamma receptors on bovine alveolar macrophages. Nature of the assay: cell-based or functional assay.
Assay [2] deals with recombinant bovine FcRn (bovine) (UniProt F6R592). Nature of the assay: SPR Biacore, bFcRn, pH 6; against bIgG1a and bIgG3a mAbs. (In SPR one partner is held on a chip, and binding of the other changes the refractive index at the surface.)
Assay [3] has the same target. Nature of the assay: SPR Biacore, bFcRn on SA sensor, pH 7.4, 25 C.
Assay [4] has as its target recombinant bovine Fcg2R (bovine). The experiment in a line: SPR Biacore, bFcg2R amine-coupled on CM5, pH 7.4, 15 C.
The target in assay [5] is recombinant bovine FcRn (bovine) (UniProt F6R592). Nature of the assay: SPR Biacore, bFcRn on SA sensor, pH 6, 25 C.
Assay [6] has the same target. Nature of the assay: SPR Biacore, bFcRn on SA sensor, pH 7.4, 25 C. The source holds these as a separate data set.
Assay [7] has the same target. Nature of the assay: SPR Biacore, bFcRn on SA sensor, pH 6, 25 C. The source holds these as a separate data set.

One may read the Kd as the constant that tells how readily two partners part at equilibrium.

recombinant bovine FcRn (bovine), sequence (chain, as listed by the source, chain 1 of 2): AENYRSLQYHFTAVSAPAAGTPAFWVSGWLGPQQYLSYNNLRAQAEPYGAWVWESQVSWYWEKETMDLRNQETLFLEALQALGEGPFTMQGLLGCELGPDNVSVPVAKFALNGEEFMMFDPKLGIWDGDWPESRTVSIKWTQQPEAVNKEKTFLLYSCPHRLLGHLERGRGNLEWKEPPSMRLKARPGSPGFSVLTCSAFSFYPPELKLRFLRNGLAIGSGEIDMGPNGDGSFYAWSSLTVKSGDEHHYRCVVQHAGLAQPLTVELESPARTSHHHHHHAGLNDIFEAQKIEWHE
recombinant bovine FcRn (bovine), sequence (P01888 21-118, chain 2 of 2): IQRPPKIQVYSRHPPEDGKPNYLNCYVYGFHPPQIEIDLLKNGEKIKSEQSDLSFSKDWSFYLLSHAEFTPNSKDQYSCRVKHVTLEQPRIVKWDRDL
recombinant bovine Fcg2R (bovine), sequence (main, as listed by the source): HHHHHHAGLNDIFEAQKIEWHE

“CTLA4 Fc bIgG1a (from UniProt Q9XSI1 36-161) (Fc fusion)”: in assay [1], the ADCP EC50 Value stood at 0.003 µg/mL.

The substance “CTLA4bG2a (from UniProt Q9XSI1 36-161) (Fc fusion)” returned an ADCP EC50 Value in assay [1] of 0.014 µg/mL.

For the substance “CTLA4 Fc bIgG3a (from UniProt Q9XSI1 36-161) (Fc fusion)”, the ADCP EC50 Value in assay [1] stood at 0.029 µg/mL.

Turning to bIgG2a wildtype mAb (antibody), the fold higher affinity than bIgG1a and bIgG3a in assay [2] was 10 fold. Moreover, the Kd was 131 nM in assay [3]; 13.3 nM in assay [4]; 0.254 nM in assay [5]; 147 nM in assay [6]; 3.06 nM in assay [7].
